One block for each molecule: values may come before it.
Tests used:
[1] = molecular target: p44ct(368–534) (Chaetomium thermophilum); assay: ITC
[2] = molecular target: full length p44hs (Homo sapiens, UniProt Q13888 1-395); assay: co-IP
Chain of full length p44hs (Q13888 whole entry): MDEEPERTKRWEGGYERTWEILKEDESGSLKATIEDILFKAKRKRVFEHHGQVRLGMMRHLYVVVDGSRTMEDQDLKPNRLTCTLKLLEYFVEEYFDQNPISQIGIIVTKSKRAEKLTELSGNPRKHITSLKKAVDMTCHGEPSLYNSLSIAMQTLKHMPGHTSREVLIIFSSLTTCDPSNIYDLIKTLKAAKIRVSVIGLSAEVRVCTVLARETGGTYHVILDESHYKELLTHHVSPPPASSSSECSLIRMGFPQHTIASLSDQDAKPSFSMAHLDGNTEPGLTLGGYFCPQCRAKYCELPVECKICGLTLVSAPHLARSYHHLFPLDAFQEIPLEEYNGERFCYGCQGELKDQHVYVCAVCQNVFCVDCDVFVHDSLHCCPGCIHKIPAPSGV

Kd [1]: 11 nM
dH [1]: -25 kcal/mol
stoichiometry N [1]: 0.71
Molecule: p34ct(1–277) (domain or fragment)

binding result [2]: binds
B1: full length p34hs (natural protein)
chain: MVSDEDELNLLVIVVDANPIWWGKQALKESQFTLSKCIDAVMVLGNSHLFMNRSNKLAVIASHIQESRFLYPGKNGRLGDFFGDPGNPPEFNPSGSKDGKYELLTSANEVIVEEIKDLMTKSDIKGQHTETLLAGSLAKALCYIHRMNKEVKDNQEMKSRILVIKAAEDSALQYMNFMNVIFAAQKQNILIDACVLDSDSGLLQQACDITGGLYLKVPQMPSLLQYLLWVFLPDQDQRSQLILPPPVHVDYRAACFCHRNLIEIGYVCSVCLSIFCNFSPICTTCETAFKISLPPVLKAKKKKLKVSA

Source: publication PMC5737387 (Nucleic Acids Research, 2017)
